Patent US6569434 (MERCK, dated 2003)

Target: T1, rat VEGF A subunit, 164 amino acid mature (secreted) form of the 190 amino acid translation product (rat, UniProt P16612 27-214)
T1 construct: also called VEGF AB, A subunit; A chain
T1 sequence: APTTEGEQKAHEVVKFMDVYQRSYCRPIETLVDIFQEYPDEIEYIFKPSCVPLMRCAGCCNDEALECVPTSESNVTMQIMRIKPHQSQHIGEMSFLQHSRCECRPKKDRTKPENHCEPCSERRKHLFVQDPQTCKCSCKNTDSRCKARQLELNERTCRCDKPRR
Test: purified native VEGF AB reduced and carboxymethylated; subunits separated by C4 reverse phase HPLC and N-terminally sequenced; single 58 kDa band non-reduced against about 23 kDa reduced on SDS-PAGE

- binding result: binds
B1: rat VEGF B subunit, 135 amino acid mature form derived from the 158 amino acid full length form (ligand)
chain: ALSAGNNSTEMEVVPFNEVWGRSYCRPMEKLVYIADEHPNEVSHIFSPSCVLLSRCSGCCGDEGLHCVALKTANITMQILKIPPNRDPHSYVEMTFSQDVLCECRPILETTKAERRKTKGKRKQSKTPQTEEPHL
notes: Native subunit purified from GS-9L conditioned medium as part of VEGF AB; also called VEGF AB, B subunit; B chain
